Results: the supplement of paper PMC10724198
± gives the standard deviation of the averaged measurements.

system: Saccharomyces cerevisiae; experiment: protein stability index of tFT-peptide fusion (C-terminal peptide) (PSI (0-1 scale)); higher = more stable (slower turnover); conditions: genetic background: wild type; temperature: 30 C
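Note: PSI is a weighted mean of sequencing reads over stability bins, variants kept only with over 10 reads, mCherry proximal and sfGFP distal, peptide attached via GGGS linker.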

Sequence	protein stability index
SWGEVRRRGCSV	0.637 ± 0.0065
ENDRKKDKERIK	0.678 ± 0.013
PGKSGRKLVSSG	0.681 ± 0.012
GCPHGTLFVSLE	0.699 ± 0.065
RGPPCPFPVPLP	0.74 ± 0.033
TPWQTREVTRAR	0.691 ± 0.057
IQSRGQEKKKRK	0.673 ± 0.0075
NGLACGSLTLLK	0.6738 ± 0.0019
GDFSLCPMFCAP	0.677 ± 0.071
RKKRNKTQTSKT	0.6936 ± 0.00054
CRSGFEPSPHLG	0.657 ± 0.029
EPDQERKSIQGM	0.7 ± 0.013
VLDRGGAGAVCV	0.649 ± 0.024
PPAAPPPPPLPP	0.735 ± 0.039
RSGISFGIWVCF	0.586 ± 0.048
VVAERFADAKGS	0.653 ± 0.025
KKKRKRREKKQN	0.681 ± 0.016
IIFQWVVPTILQ	0.546 ± 0.019
IRNSDNNKNHPR	0.693 ± 0.042
LSPPYCPGALTL	0.646 ± 0.0081
VCFSCLFHESCL	0.726 ± 0.042
SVESEWHLLLTP	0.744 ± 0.013
LAVVSTRCRLEL	0.694 ± 0.062
GGRVWAGGYLGA	0.707 ± 0.068
AWVLVVLGSSHR	0.586 ± 0.05
RLPVIPRLIPSS	0.635 ± 0.028

Sequence	protein stability index
RLGNVYSTSFQC	0.618 ± 0.012
FCCGGEFAWCLG	0.695 ± 0.016
GCGSYELLRSAS	0.68 ± 0.012
LSFLAPGPPPAR	0.735 ± 0.039
FQFSFLRFGGCA	0.651 ± 0.048
PVCASVSLTSSP	0.697 ± 0.024
RSPPLTPPPCPS	0.6931 ± 0.005
GLGKWGGGGDER	0.723 ± 0.012
PFQPPSLIPSRH	0.746 ± 0.026
VYHFPDLFPLGI	0.7078 ± 0.0027
RGGDIEVPSDQN	0.705 ± 0.019
LRPFSPSPPRPF	0.705 ± 0.013
VDEREKGSKQGK	0.689 ± 0.031
RSGLVRSLPLLL	0.664 ± 0.069
PFPPPSAPPPSP	0.71 ± 0.015
SGVAAGLVAGSL	0.673 ± 0.12
AVWLVVRGVRGR	0.679 ± 0.034
LGILVFRGASFL	0.7351 ± 0.007
TARRAAARSSQL	0.742 ± 0.03
KYMENQLSYDAD	0.646 ± 0.051
IVGEDRRRTAFR	0.678 ± 0.026
TPRRPPATPAPC	0.653 ± 0.025
FVSLVATASHWV	0.568 ± 0.033
VVRKVALVALPL	0.574 ± 0.05
IRVAWTPRSYDL	0.664 ± 0.038
PPRPPPLPPSRP	0.627 ± 0.032

Sequence	protein stability index
LQAKRTAGPGEH	0.68423 ± 0.00012
FIVGIQTKPVKL	0.661 ± 0.11
GGGIVGWFCRGR	0.675 ± 0.068
SLMLPIFLPLSR	0.698 ± 0.04
VPPNTLTAPHLF	0.844 ± 0.046
PSTPRPPRPPPL	0.695 ± 0.027
FSGWVFAPFFFF	0.644 ± 0.048
GGGLGGGGGVWG	0.7104 ± 0.004
FLTSTLVSSGGD	0.676 ± 0.034
DLTPLSSSRLPP	0.652 ± 0.04
KALKNEYRYRAF	0.645 ± 0.073
GWWWGGGGAWSG	0.718 ± 0.071
PQLFLENHEFCI	0.925 ± 0.051
KKQQKTKEKTES	0.76 ± 0.031
LPMGGMFVARSI	0.653 ± 0.059
GVSVICGFPVSC	0.732 ± 0.056
KKRRTIKSQSKV	0.6825 ± 0.0049
GGGWSRGGSGAG	0.687 ± 0.011
SVTLSVSCPMLR	0.708 ± 0.024
SAVLLLNAGGLV	0.688 ± 0.0071
VGAGGLWCGGGY	0.83 ± 0.031
ALVSRGPCVFGW	0.662 ± 0.045
CLISDLRFVNKR	0.69 ± 0.056
FYRWDTFRWTRG	0.683 ± 0.01
DPPLSGRAKGPH	0.709 ± 0.02
GPFHSGSASRSA	0.653 ± 0.047

Sequence	protein stability index
GEWRFCLGYRRR	0.647 ± 0.018
WSRSEIGDGSAG	0.742 ± 0.023
GSAGGGLLCGCP	0.657 ± 0.008
TLDGEAILVIYI	0.5944 ± 0.0051
VCFVGGGGSCRD	0.635 ± 0.068
PPPPPQLPQCPP	0.711 ± 0.042
NKNKKKKEKKSR	0.725 ± 0.12
PPPPPPNLASHP	0.707 ± 0.0031
RKGRETGTKERE	0.671 ± 0.036
TSRKNRVKASVP	0.739 ± 0.039
PGWGPLVARRFV	0.735 ± 0.025
TGSAIVPHQVPS	0.653 ± 0.015
GRRLSDTSIFSS	0.679 ± 0.087
PDLTVYNLCGGC	0.774 ± 0.098
SRALNAPAPFLP	0.747 ± 0.044
LLSLHPRYPCTP	0.76 ± 0.047
RGGLDQVHKGFR	0.711 ± 0.086
DDGRRRAERGGG	0.685 ± 0.047
LLAAVSPSHRAL	0.724 ± 0.021
SPLPYTPPLRAF	0.5238 ± 0.0029
AFAWERPCEIRF	0.6984 ± 0.0063
SRSPPPPALPPL	0.702 ± 0.05
PALPAPFLSSPH	0.6737 ± 0.00099
MRLTLGSHMAYY	0.69 ± 0.082
KKETKSNCRIKN	0.708 ± 0.017
FGCDCFCPFCLR	0.706 ± 0.019

Sequence	protein stability index
SPPLSLPPPGQS	0.671 ± 0.073
VMGIGAAVRRVR	0.713 ± 0.02
SEGCASLSGRVG	0.665 ± 0.047
LLLPPAPPPPLS	0.621 ± 0.095
PPLPSPPAHSRS	0.678 ± 0.02
LFGAVGGGVEVG	0.668 ± 0.12
SWSAVPHSPLMP	0.823 ± 0.068
SSSLPPPPHAFP	0.672 ± 0.036
TPPVPPHPRSLL	0.774 ± 0.11
LRQWRRERAIII	0.601 ± 0.042
PHAPHFSRSIPS	0.745 ± 0.027
GEVIAYGSAWGL	0.647 ± 0.014
SRRMFCACYVLS	0.585 ± 0.031
QNQVERREFRFS	0.701 ± 0.088
NVLVSPFVPLSF	0.724 ± 0.0089
ARIVEQTLCTKS	0.679 ± 0.057
PLIASPQPPFPT	0.6692 ± 0.0036
GFGGWIVCLGGG	0.669 ± 0.0096
AVSCTAWVTALG	0.522 ± 0.012
QWPNPEVLVRST	0.70875 ± 0.00048
AGGPARWCLEVG	0.7 ± 0.015
LSVWPHSVPSFV	0.659 ± 0.036
GLIGLVHFWRGT	0.655 ± 0.035
FTSPLPPVAPPL	0.693 ± 0.03
AYCGGSNKCTTE	0.732 ± 0.026
PPPPPPPHPTPT	0.676 ± 0.039

Sequence	protein stability index
FTQVIQQQRRVV	0.627 ± 0.067
IRGWVRCRVARG	0.683 ± 0.021
EWYRNNFFFLDL	0.772 ± 0.02
DLSDPGHSLSIL	0.68 ± 0.055
PLPPPPRPRLPL	0.764 ± 0.047
PSPPLLTPLPPC	0.675 ± 0.022
LPCVSTCCSCLL	0.706 ± 0.011
LPTYPPTLPVPS	0.638 ± 0.04
PASPFPQTCPPP	0.737 ± 0.074
SLTAPPNLASPW	0.705 ± 0.089
SRLFSFLYDVTA	0.665 ± 0.036
CVVHLLIFGLCI	0.5963 ± 0.0046
ISCTASRCRLTR	0.744 ± 0.025
NVCICSIRNATN	0.804 ± 0.11
HWYLRCAVCEGV	0.651 ± 0.022
GRSGACGWVGFG	0.7238 ± 0.0013
FPFPTLSDLRPT	0.698 ± 0.036
VLRVSRHLKAVK	0.65 ± 0.024
PIPPPPPPPPDP	0.652 ± 0.017
SRPTAPKRQTRY	0.6886 ± 0.0046
RLFSYLSTLSFI	0.727 ± 0.053
ACKWGVNKSTLG	0.703 ± 0.043
PLHLPPPFSPRP	0.7333 ± 0.0063
PVSSFHICGPIC	0.71 ± 0.0098
PGASAKPHSSAN	0.712 ± 0.031
ARRVILRANGRI	0.668 ± 0.035

Sequence	protein stability index
GAGDGRGRIEGR	0.674 ± 0.015
GGGRGNRGEKMT	0.67 ± 0.012
IEPTFDGSLCLG	0.7 ± 0.0094
RHARAARDSPRR	0.705 ± 0.081
SPRNIVFQPLSP	0.622 ± 0.069
LPPPPRPRSLLS	0.693 ± 0.047
FRCQHVRVSASF	0.799 ± 0.028
PLSLFPSSQCWS	0.771 ± 0.038
GRTGRSVGTGVR	0.662 ± 0.025
SFLSMDANDLLS	0.7 ± 0.029
LKNIRYGIIKKE	0.68 ± 0.0085
FYRPNLLNAGRL	0.715 ± 0.023
SGCSWRGSPVKE	0.636 ± 0.0076
FTVCVIYSKPSQ	0.5872 ± 0.0013
VRAEVSNVDYVS	0.658 ± 0.0096
CIPHVVPYSTGK	0.697 ± 0.014
SPPSPLYFCSRF	0.661 ± 0.015
GWVFCLFPVGGL	0.607 ± 0.051
FPLVPPPSSPLF	0.687 ± 0.022
PPPPPSVTRTQP	0.649 ± 0.043
VVGFVRPGMQGL	0.673 ± 0.052
LFAHSLRLSFAC	0.7054 ± 0.0031
SCTRASSMSLSP	0.674 ± 0.024
GNCPGYSELGRF	0.6941 ± 0.0044
PPRAPSPSPLPP	0.893 ± 0.1
GGFGAVPEVRAR	0.725 ± 0.035

Sequence	protein stability index
SVAPRLFSPSHP	0.6548 ± 0.0055
PSVPSPPPPSPP	0.683 ± 0.024
KTKKIMPEQIKK	0.616 ± 0.017
PLAPPPPSSPPV	0.675 ± 0.083
AGRVGVRGVVGG	0.748 ± 0.1
VHLYGRTAGRGV	0.816 ± 0.06
RVRVGGPRESGQ	0.7054 ± 0.00082
KKKTKQTKVNKK	0.64 ± 0.072
YTRILRKKLINK	0.711 ± 0.11
VGHGGCCGWGCG	0.786 ± 0.1
PAPPSLAAPRGT	0.663 ± 0.0092
YLVHEIGDMTYM	0.739 ± 0.079
FVNKRRGCRELE	0.701 ± 0.0053
GIENTYVVIFID	0.598 ± 0.068
EEAGETAGGRRE	0.648 ± 0.093
PHPPPPRPPPRS	0.642 ± 0.067
CCSLIPRAPSGR	0.687 ± 0.051
TDPKLTRTHENE	0.674 ± 0.014
SWGCSMAKVWVR	0.585 ± 0.038
SPRLDPLFRSPP	0.712 ± 0.017
